From paper PMC12450071

Biological target: JUNV GP1 (receptor-binding domain), subunit within the GPC on PV membranes (Junin virus strain MC2)
Test: cryo-EM structure

Substance: JUNV GP1 (receptor-binding domain), subunit within the GPC on PV membranes (domain or fragment)
- stoichiometry N: 3
